Assay in all cases: AlphaScreen or HTRF
A general note: In Alpha technology, singlet oxygen from a donor bead excites a nearby acceptor bead.

Experiment [1] addresses His-tagged HCMV UL50 (residues 1-169) C35N (human cytomegalovirus (HCMV)) (UniProt P16791).
In experiment [2] the target is His-tagged HCMV UL50 (residues 1-169) C54S (human cytomegalovirus (HCMV)) (UniProt P16791).
In experiment [3] the target is His-tagged HCMV UL50 (residues 1-169) C79S (human cytomegalovirus (HCMV)) (UniProt P16791).
The target in experiment [4] is T1, Myc-tagged HCMV UL53 (residues 50-292) with glycine-serine linker (human cytomegalovirus (HCMV), UniProt P16794 50-292).
T1 construct: source: E. coli BL21 (DE3) RIPL, purified (glutathione-agarose, on-column PreScission digestion, size exclusion chromatography); not shown: GST, N-terminal, cleaved; Myc, N-terminal, kept
T1 sequence: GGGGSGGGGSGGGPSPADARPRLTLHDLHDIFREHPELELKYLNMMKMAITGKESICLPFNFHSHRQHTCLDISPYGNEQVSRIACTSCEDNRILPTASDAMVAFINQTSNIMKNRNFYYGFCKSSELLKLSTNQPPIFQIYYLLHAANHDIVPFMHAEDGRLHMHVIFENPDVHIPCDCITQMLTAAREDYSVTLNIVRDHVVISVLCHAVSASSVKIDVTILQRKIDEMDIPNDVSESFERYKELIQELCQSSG
The following applies: both partners purified.

Regarding “Myc-tagged HCMV UL53 (residues 50-292) with glycine-serine linker (from UniProt P16794 50-292) (domain or fragment)”, the Kd (usually the concentration at which binding is half-saturated) in experiment [1] was 150 nM; in experiment [2] it was 240 nM; in experiment [3], 340 nM.

B1: His-tagged HCMV UL50 (residues 1-169) (domain or fragment)
chain: MEMNKVLHQDLVQATRRILKLGPSELRVTDAGLICKNPNYSVCDAMLKTDTVYCVEYLLSYWESRTDHVPCFIFKNTGCAVSLCCFVRAPVKLVSPARHVGEFNVLKVNESLIVTLKDIEEIKPSAYGVLTKCVVRKSNSASVFNIELIAFGPENEGEYENLLRELYAK
notes: also called His-UL50; source: E. coli BL21 (DE3) RIPL, purified (nickel Sepharose, size exclusion chromatography); not shown: His, N-terminal, kept
The molecule B1 returned a Kd in experiment [4] of 300 nM.

The record behind these values is publication PMC10691697, “A small molecule exerts selective antiviral activity by targeting the human cytomegalovirus nuclear egress complex” (PLOS Pathogens, 2023).
